Residue numbers refer to the chain shown, from its start. One block for each binder: values may come before it.
What was measured:
[1] = target: human CLDN18.2 expressed on cells (human); assay: cell-based or functional assay
[2] = target: human CLDN18.2 expressed on cells (human); assay: cell-based or functional assay; remark: listed apart in the source
[3] = target: human CLDN18.2 expressed on cells (human); assay: cell-based or functional assay; remark: listed apart in the source
[4] = target: human CLDN18.2 expressed on cells (human); assay: cell-based or functional assay; remark: listed apart in the source
[5] = target: T1, human CLDN18.2 expressed on cells (human); assay: flow cytometry (geometric mean, Alexa Fluor 647 anti-human IgG Fc) on CLDN18.2-expressing 293T cells
T1 construct: also called huCLDN18.2

[6] = target: T1, human CLDN18.2 expressed on cells; assay: flow cytometry on CHO cells expressing huCLDN18.2, GAH-FITC secondary, percent FITC-positive cells
Description: CHO cells expressing huCLDN18.2 were used to assess the binding of the antibodies. Cells were seeded at 5×10⁵ cells per 100 μl into a well of a 96-well plate for each sample. Then, 100 μl of each serially diluted antibody was added to the cells, each dilution started at 40 μg/ml and was diluted 5-fold. Therefore, the final concentration of each antibody starts at 20 μg/ml followed by a 5-fold serial dilution. After 1 hour, the cells were washed twice and 100 μl of GAH-FITC (1:200 dilution) was added to each well. After 30 minutes, the cells were washed twice and resuspended in 120 μl of FACS buffer. The cells were analyzed via flow cytometry.
Unstained cells were used as a reference to set up overall target cell gating and to establish the FITC-negative populations, allowing us to establish the FITC-positive cell gate for each cell line. Additionally, the mean fluorescence intensity (MFI) of the entire population of cells was calculated to secondarily validate the FITC-positive results. The ratio of the gated positive cell number to the total live cell number is taken as the percentage of positive cells.

B1: IMAB362 (Ganymed) (antibody, V domains shown)
VH: QVQLQQPGAELVRPGASVKLSCKASGYTFTSYWINWVKQRPGQGLEWIGNIYPSDSYTNYNQKFKDKATLTVDKSSSTAYMQLSSPTSEDSAVYYCTRSWRGNSFDYWGQGTTLTVSS
VL: DIVMTQSPSSLTVTAGEKVTMSCKSSQSLLNSGNQKNYLTWYQQKPGQPPKLLIYWASTRESGVPDRFTGSGSGTDFTLTISSVQAEDLAVYYCQNDYSYPFTFGSGTKLEIKR
CDC on CT26 CLDN18.2 cells, LDH: EC50 (run A) [1]: ~11.5 nM
CDC on CT26 CLDN18.2 cells, LDH: EC50 (run B) [1]: ~10.7 nM
CDC on CT26 CLDN18.2 cells, LDH: EC50 (run C) [1]: ~11.9 nM
CDC on KATOIII CLDN18.2 cells, LDH: EC50 (run A) [2]: ~38.1 nM
CDC on KATOIII CLDN18.2 cells, LDH: EC50 (run B) [2]: ~22.7 nM
CDC on KATOIII CLDN18.2 cells, LDH: EC50 (run C) [2]: ~27.5 nM
ADCC (PBMC) on KATOIII CLDN18.2 cells, LDH: EC50 (run A) [3]: 0.12 nM
ADCC (PBMC) on KATOIII CLDN18.2 cells, LDH: EC50 (run B) [3]: 0.22 nM
ADCC (PBMC) on KATOIII CLDN18.2 cells, LDH: EC50 (run C) [3]: 0.27 nM
ADCC (PBMC) on NCI-N87 CLDN18.2 cells, LDH: EC50 (run A) [4]: 0.057 nM
ADCC (PBMC) on NCI-N87 CLDN18.2 cells, LDH: EC50 (run B) [4]: 0.082 nM
ADCC (PBMC) on NCI-N87 CLDN18.2 cells, LDH: EC50 (run C) [4]: 0.1 nM
EC50 (read off the curve) [5]: ~800 ng/mL

B2: YL-G1-19-02 (antibody, human IgG1, kappa)
heavy: not shown
light: DIVMTQSPSSLTVTAGEKVTMSCKSSQSLLNSGNQKNYLTWYQQRPGQPPKLLIYWASTRESGVPVRFTGSGSGTDFTLTISSVQAEDLAVYYCQNAYIYPLTFGTGTKLELKRTVAAPSVFIFPPSDEQLKSGTASVVCLLNNFYPREAKVQWKVDNALQSGNSQESVTEQDSKDSTYSLSSTLTLSKADYEKHKVYACEVTHQGLSSPVTKSFNRGEC
ADCC (PBMC) on KATOIII CLDN18.2 cells, LDH: max (% cytotoxity) [3]: 19.9%

B5: YL-G2-B (antibody, human IgG1, kappa)
heavy: EVQLQQSGPELEKPGASVKISCKASGYSFTGYKMNWVKQSNGKSLEWIGNIDPYYGGTTYNQKFKGKATLTVDKSSSTAYMQLKSLTSEDSAVYYCARYGKGNTMDYWGQGTSVTVSSASTKGPSVFPLAPSSKSTSGGTAALGCLVKDYFPEPVTVSWNSGALTSGVHTFPAVLQSSGLYSLSSVVTVPSSSLGTQTYICNVNHKPSNTKVDKRVEPKSCDKTHTCPPCPAPELVGGPSVFLLPPKPKDTLMISRTPEVTCVVVDVSHEDPEVKFNWYVDGVEVHNAKTKPPEEQYNSTLRVVSVLTVLHQDWLNGKEYKCKVSNKALPAPIEKTISKAKGQPREPQVYTLPPSREEMTKNQVSLTCLVKGFYPSDIAVEWESNGQPENNYKTTPLVLDSDGSFFLYSKLTVDKSRWQQGNVFSCSVMHEALHNHYTQKSLSLSPGK
light: B2 light
notes: also called YL-G2-B batch 1; YL-G2-B batch 2
EC50 (read off the curve) [6]: ~0.6 ng/mL

Results, then the binder that gave them:

EC50 (read off the curve) [6]: ~0.3 ng/mL
B3: YL-G2-D (antibody, human IgG1, kappa)
heavy: QLQQSGPELEKPGASVKISCKASGYSFTGYKMNWVKQSNGESLEWIGNIDPYYGDTTYTQKFKGKATFTVDTSSSTAYMQLKSLTSEDSAVYFCARYNRGNTMDYWGQGTSVTVSSASTKGPSVFPLAPSSKSTSGGTAALGCLVKDYFPEPVTVSWNSGALTSGVHTFPAVLQSSGLYSLSSVVTVPSSSLGTQTYICNVNHKPSNTKVDKRVEPKSCDKTHTCPPCPAPELVGGPSVFLLPPKPKDTLMISRTPEVTCVVVDVSHEDPEVKFNWYVDGVEVHNAKTKPPEEQYNSTLRVVSVLTVLHQDWLNGKEYKCKVSNKALPAPIEKTISKAKGQPREPQVYTLPPSREEMTKNQVSLTCLVKGFYPSDIAVEWESNGQPENNYKTTPLVLDSDGSFFLYSKLTVDKSRWQQGNVFSCSVMHEALHNHYTQKSLSLSPGK
light: B2 light with M21L, T75A, Y93F, I99F, K113R
notes: Fc-engineered version of YL-G1-19-04 without the first two VH residues; also called Fc-engineered chimeric antibody

EC50 (read off the curve) [6]: ~0.6 ng/mL
B4: YL-G2-C (antibody, human IgG1, kappa)
heavy: QIQLVQSGPELRKPGETVKISCKASGFPFTTDGMSWVKQAPGKGLKWMGWINTYSGVPTYADDFKGRVAFSLETSASTAYLQIKNLKNEDTATYFCARFRRGNALDNWGQGTSVTVSSASTKGPSVFPLAPSSKSTSGGTAALGCLVKDYFPEPVTVSWNSGALTSGVHTFPAVLQSSGLYSLSSVVTVPSSSLGTQTYICNVNHKPSNTKVDKRVEPKSCDKTHTCPPCPAPELVGGPSVFLLPPKPKDTLMISRTPEVTCVVVDVSHEDPEVKFNWYVDGVEVHNAKTKPPEEQYNSTLRVVSVLTVLHQDWLNGKEYKCKVSNKALPAPIEKTISKAKGQPREPQVYTLPPSREEMTKNQVSLTCLVKGFYPSDIAVEWESNGQPENNYKTTPLVLDSDGSFFLYSKLTVDKSRWQQGNVFSCSVMHEALHNHYTQKSLSLSPGK
light: B2 light with R45K, V66D, V91I, A97N, I99F, T106A, K109R
notes: Fc-engineered version of YL-G1-19-03; also called Fc-engineered chimeric antibody
